The results in this text go back to the NTF2 design screens of Basanta et al. (2020).

The nature of this series: protease stability score; higher = more stable; yeast display proteolysis, trypsin and chymotrypsin.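 Further: relative to predicted unfolded state with 0 unfolded-like and 1 meaning tenfold more protease.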
“DEEEQHLKKFLKYLKKAIETGDWHKITEMADPNTRLNINGVDNIGWEIISHILMHELEELGLEQIHVHFEHERIQGDKVKLEIHLHIGDKVEHAEMYILKFDGRWRIKRLVRG” displayed a protease stability score of 1.93.
Then “DEEEQHSRELAEIYFEIWETGDFHTHKRMMDPNAKLDYNGQTIHGREHIVEYLRHLWERVKGVRFHLDSVHLQGDWLHIRGTLQVDGQHHKVDIHVQIVDGVLHEEHIRVR”, with 1.53; and “DEEEQLFHEAHDKFIKIMETGDWKDFHRNFDPDAKIEVGDKDKHGREEATEMLKFILDLLGVDHVLVKRLRIYGNKIESDVVFNVNGVEQRFHLISVKINGKWRTHKIVLR”, with 1.23; and “DEEEQLSKIALRHFVESLETGDEHLLHRLIDPHARDIVDGVEIHGRDRMVENLIHMIERFKNVRLEIKDIKVINGRVHVEGRLEVDGKKLTMNLHFQKFDGRWWVRSVERH”, with 1.52.
Then “DEEEQQVEEVLRNMLRDFYTGDWKRLMKLADPHVQLDINGQLHHGREEAARFLIEWWEILGFKHSRLRHIDIQGEKLHIHGDKRVNGRTFELELIIIIINGRIRSEEIRVI”, with 0.691; and “DEEEQRIEEMLKKWLEAMETGDEDLEKQLADPNVRFHIGDKEHVGREELSQVKKRLGIKVMILHDERVDRQGDWIVMHLDIILEFDGRRFRVRFNLFVEKIDGRWLVKKVEIHLR”, with 0.936.
For the sequence “DEEEQSERIALELLDKSINTGDERVWKEMFDPRVIMDINGVKLIGREDYRRWRERFDHEENRDFKIHHHEVQGNKVHLDVEIDLTLNFDGKRHRHIFRTEVDVIKFDGKWHIRSLIVK”, the protease stability score amounted to 1.18.
Regarding “DEEERAAEEFLRWISKNSRTGDEESFNHLADPNTRVIIGDKVLHGREEWKKFLEEIRIEEIELKDFRIFDGKIRLDVIHTGKVNGRRHEVQVQMIVIKVNGRWIMHSVKFD”, the protease stability score stood at 1.09.
Then “DEEERAARFVLELIIRTFDTGDEHTIHELLDPHVRLWVGDKTFHGREQITHLIQRHLEELGFDHVHVHHRTIDVQGEKIELHGELELRQGDKRDTRTIKIIVQKVDGRWRITIFEIE”, with 1.48; and “DEEERALIVLLLLFEESMRTGDPRLIKELMDPHMRLRFENRHYHGRDEFMEWFKQVDHIFIDRVNIRDVRLIGEWVRIDVEILGTHEQGDKQFEFRRRTHLVVRKVDGRWIMHHVEIR”, with 1.64.
Then “DEEERAMEHMVRHLVDDIHTGDWRSLYRFLDPDVRLHVGDKRFHGRDTIVRLLLELLQTWGIDRIHSEVKHVHLQGEKIEAHTKDKYGDFEFSVLVDIFKIDGKWVIERREIS”, with 1.08.
Then “DEEERDAEEVFRKFMRDVFTGNWDHIHEMFDPHARSSIQVDGRHIELHGRDELTRIFIWLGVDHIELKHVHIQGEKVISIGIVRYNGKHTHLEVYLRKVDGRWIIHSVHVRIR”, with 1.67; and “DEEERDAIHAFRDFVKNFITGNEDRIDELADPHMRSDINGVSIHGWEEFSRHTLREMKRFDHIEFRIRDIKIQGNYIHIDTEVILRVNGRTFSTRMVLIWLKVNGKWFLHEIDVR”, with 1.35.
“DEEERDAKEARDLLERSMDTGNEDLWKELLDPNMIIHIGDKEIHGMKEWIEFHKERGAETRVEFKDMRMQGNKLILRLNLKVHFDGQTYEHEVTYIVSKVDGVWLVKYIHIH” gave a protease stability score of 0.981.
The sequence “DEEERDARRVYEHLIENWETGNFDRVLELFDPHVKLIFNGQEFIGRDDVSKEINRIDHEHIDDFRLHSIRIVDGRIEIDGRIRFTLHVNGKTVHFDRKLILIMRKVDGRWIITSLHIR” gave a protease stability score of 2.09.
Consider “DEEERDIKIAIEFWIETWLTGDEEKEEELLDPNVRLLINGKELHGRERVVKFLKRHYHRVDHSRIDIRRMHVVDGQVHVETELRVHFDGRELRFDIILHFRKFNGRWEITKIELR”, for which the protease stability score worked out at 2.
Consider “DEEERDISRWLDHLIESLETGDEDSLQHLLDPHVRVVVNGKDHHGWKALTKMLRQLRVNRIRIRDFEIIGDKIEVDIRMHVRVGDKHYVFNVDLVARKIDGRWIMHNITIH”, for which the protease stability score worked out at 2.19.
In the case of “DEEERDLQQFIEEWWKTLVTGDEHLIERYLDPHVRMDWNGRELHGREAIADTIKKYVDEIRLEVRINHVRFQGDKVDIDGEIVERQGDKTRHLNFELEIIVVNGRAQEIRVRLR”, the protease stability score worked out at 1.48.
“DEEERDMKHSSERLLRTWVTGDEDLLRTLADPDARHHLEVDGVHLHLHGMEHFSKWTTDLIEKLGIKHFDMKDLDVQGDKIHVHSTFHYGDKTFEVRLIVVKIDGKWLLSHSSFIVR” registered a protease stability score of 0.299.
For “DEEERDMKIAEEVFLHAMHTGDWKKFFELMDPHVKVHIDGVDLHGREEASKIWKERIDKVKNMTFDVKHSHRQGNKVTLHTELHVNGKTTHLIVVLSKVNGRWTLEEMSEE” the value was 1.21.
For “DEEERDSKRALELMIHWVETGNEERLSRLIDPHARLEIGDKHHHGREEFEKWFRRIDYLQYYTVRHIELQGDKIEVKVELTFIIDGQEVHTETRVIAIKFDGRWRLTSMEIN”, the protease stability score stood at 1.54.
Then “DEEERDSRIALEIWLHNVRTGDEKSERDNLDPHVRYIVDGRDYIGREDFLHMMSQIRIEEIRIKRFSSYNGRIHMDVHSRVTYNGVDRDIDENLHSTKYDGRWSIHYIEFR”, with 1.01.
“DEEEREARDAVHRFDKDVVTGDEDRLRELMDPNVKLDIGDKEIIGREYMVSFWRELVKHIRIHSITIKRVEVYDGRIHVHQEVTLNIDGQHVTIKSHTIALKVNGKWTWTRFSMT” displayed a protease stability score of 1.06.
Then “DEEERELKHFLKEFNRAWRTGDEDEIRHLLDPHVRILFNGVHVIGMEEIEKFWRHLRVRVTRITVHRVDLQGDKLRVDTEQDLVFLIGDFENKHTHHTVIFILKINGRWIIESIVIV”, with 1.45; and “DEEERERKHIAEEFAHELETGDEERFVELADPNVRSDINGKQYHGRDRFRDWQEQWHEKVKNLRFEIERWRVIGDFVRIDVRIRIDGRRHNVEIIQVVVNGRITFLEIRVK”, with 0.799; and “DEEERFAEEAVEIIIRDWMTGDEELLHRNADPHMRIEVGDKTIHGMENFVKFLLEIRMKDSRLRVEDVKHYNGKLHLTFKSEVDGRVNGRRKTLTFDIKMIIEKVDGRWILKTIHIV”, with 1.89.
“DEEERFSEEALRRIWHALETGDERIQEDLADPNVRIDVGEKSYHGREKWSEMIRHMRLHDIKIHHVIVINGRMRFHGRMDGNIDGKRIDTEVEIHFEKVDGKWLVRKIRIH”: the protease stability score came to 2.25.
For the sequence “DEEERHMKKLLDELLRAWVTGDESRLSELLDPNARSIVNGKSSHGREESEKIVRWAGVKHFNEDDTKLINGVVVVKGTMEVDGVTWEVDIRNFIFDGRVKEVRIIIR”, the protease stability score worked out at 1.19.
On to “DEEERHTHEWFKELLHNLQTGDEDRFRQMADPNVQILVDGVEYIGREHAAHWMIIHIRHLRIEHEHDEEIRVFDGRIDVRHIRVGSYGDKRTDTRVHIDVNIIDGRIKFLRIHYS”, for which the protease stability score stood at 0.869.
Regarding “DEEERHTREMADWFITLFLTGNEEIMMELADPNMRLEHISEDEHYEYHGMHDVSRWLHELLLKFKNIRVRLRRIRIQGDYVIIHQDLNYNGKRVHVIIIVHIFDGRIKSLRFEFR”, the protease stability score came to 1.67.
Then “DEEERHVQTLYEIFLKLEITGNEHAIKRLLDPHTRLHINGREHHGREEVVEAVRFWLTEWRIHHFKIHNREVQGDKMYMDTRLEVEFNGVNEEVHMIIIMQKIDGRWILRRIEIE”, with 2.25; and “DEEERHVRELLQRLINALDTGDWKTIHELFDPHARMEINGQHYHGRETINDKLKEMRVSVHDWEQKHIDTFEGHAVVHTHVHIVYIVNGVKHINDTREMIVFTKINGRWVIESRHVK”, with 0.563.
Then “DEEERHVRELLREWIESLFTGDEHRLMELADPHARSHIDGVDLHGRENMHRMIHELRITDMRIRRISVRLVGDFVDVRVDGESDIYFNGQRLHTQIDIVIISSKIDGKWVIEEVHHNIE”, with 0.763.
With “DEEERIAEEMISDWIHVMRTGNEELLKDMADPHVKVYIDGRDFHGMEFLVREYRQYDHNDSELRHFTVQGNYVFSEQMLKLTVNGQTITWEVHYKSLKVDGRWIVTLILLK”, the protease stability score was found to be 1.32.
For “DEEERIAKVMLKIVEKDLHTGNFETLFHLMDPHMRLEYGDKHHHGREEAYRELLEIWEELGANHYHITHRHVRLIGDKIRIHIYSIVRFNGREHHLHIDLIVTKIDGRWVMHRIIIELK” the value was 0.723; for “DEEERISEELFNFITKHWLTGDFDAVRNRLDPNVRYLINGREWHGREYARHLASHLRVERVKIENFEIQGNKITFDTRMDGEFDGQHIDVKTIIIFVKIDGKWLLHEFVIH”, 1.34; for “DEEERKMEEALRLMKTTHDTGDWDLERELFDPNVKMDINGRELHGRRHWEKLRKDFGLDNIRFTLRHIDSQGDFILIRGDVEINGVRLDVIIIAEKINGRWIVREVRLR”, 0.718.
Then “DEEERLDEEIMERIHKAYATGDFDEIKRLIDPHVRSDINGVDTHGRDDAIHYLHHVYRRLGFKHFELKHVESYDGRVHTDGWLRFNGQERRVEFRWQVIDGRIHSVSLRMK”, with 0.975; and “DEEERLEREIVDHLWTNWYTGDEERMEELADPNVRLEINIGDKHIRLHGRHELLRHLHEWKERFKNIKIRLHDYRVIDGRVHLHVVYRFDGRHKTMHIELYIVNGRIKEIIHRES”, with 1.66.
In turn, “DEEERLLDHVIKLMLQMHLTGNEEIFLNLADPHAKFYFNGVDLHGMELVSKWESEWLHHIRIRRRHIEDSRIVGDKAHIHVRVDEEIGDKKLDTHYRVDLVVINGRWHSVRIDMR” had a protease stability score of 1.25.
“DEEERLLEELARLFLHLWRTGDEDTMLHLADPNTRSRINGVEQHGMELTNKFLEELLRHIRIKHLKITHSYAFDGRVFMHTLMHRTVDGKEETVWVEIILVVFNGKLKEYEVRFK” displayed a protease stability score of 1.3.
For “DEEERLLEKSIKEEIERNVTGDFRRIHELFDPNMRLDINGQEYMGRDLMVERWQKFKNVRSHIELRHYEIINGKAHVDGHLILYIDGVELRTRTRIIYVKINGRWSIQEIDIT” the value was 1.38; for “DEEERLLHEAFEELVRVWETGDEEEKLRYMDPNTIIVINGVELHGREEARKHAHHLRIHRFHLKDYRFQGDKVHLDMHIDGFINGQKMRTDVRFQVHKIDGRWVITHSIWI”, 1.71; for “DEEERLLLEWVRLFLTAWETGDEKLQEKLMDPHARTDFNGVQLHGREEYSRFLSQLRIRRFHVRDESIRIVGNKAESEVDGEVEGEVNGQRFKQHTEIEIHSEKINGRWLWKSLTIRIK”, 1.5.
Then “DEEERLMKELSDRFLHMKETGDEELFHKLADPNVRVEIGDKSRHGRELATEFLSWVMKELGVKHVKLHDKRTYDGRVHLNGTLEFNGREFRVRITVIIVNGRVHDIRVELE”, with 0.771; and “DEEERLQEELTKRLIHDFETGDFEAILELFDPHVRVFVNGKDDHGWEMLERSWREMGIDHMQIRDFELHHINGRLEVRIRTEIRVGDKTMDTIIILNVQKYDGRWRIHKVEITIR”, with 1.24.
In the case of “DEEERLRHEALKEWLETLVTGDERIIMEQLDPDARIDINGQEIHGMELFAKFMSEMGINVFDLKRTTIQGDKLRIEGVIKFNGKTHRVHVRSTKVDGRWRNKEVRVE”, the protease stability score amounted to 1.43.
